assay: yeast display, Sf9 membrane polyspecificity reagent, FACS + sequencing; frameworks hold sequencing errors
Procedure, shortened: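 A synthetic nanobody library was expressed on Saccharomyces cerevisiae BJ5465 by galactose induction for 36–48 hours. The library was stained for 1 hour at 4 °C with 10% biotinylated, detergent-solubilized Sf9 membrane reagent and enriched with streptavidin microbeads before FACS. Low and high (top ~1%) gates were set on anti-HA fluorescence for expression and streptavidin fluorescence for reagent binding, and each polyreactivity label reflects the gate of origin.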

Row | Sequence | polyreactivity (PSR sort gate)
1 | QVQLVESGGGLVQAGGSLRLSCAASGFIFYSNAMGWYRQEPGKERELVAAITSGGGSTYYADSVKGRFTISRDNAKNTVYLQMNSLKPEDTAVYYCAVSIGRYPYRYGYWGQGTQVTVSS | high polyreactivity
2 | QVQLVESGGGLVQAGGSLRLSCAASGFIFYSYAMGWNRQAPGKERELVADISRSGSTNYADSVKGRFTISRDNAKNTVYLQMNSLKPEDTAVYYCNKGYHSWSRLSQFGWSYDYWGQGTQVTVSS | high polyreactivity
3 | QVQLVESGGGLVQAGGSLRLSCAASGFIFYSYAMGWYRQAPGKEREFVASISGRTGSTYYADSVKGRFTISRDNAKNTVYLQMNSLKPEDTAVYYCNARIVHSFRYDYWGQGTQVTVSS | low polyreactivity
4 | QVQLVESGGGLVQAGGSLRLSCAASGFIFYSYAMGWYRQAPGKERELVATITSGGSTNYADSVKGRFTISRDNAKNTVYLQMNSLKPEDTAVYYCAARYYPFWARRNRYDYWGQGTQVTVSS | high polyreactivity
5 | QVQLVESGGGLVQAGGSLRLSCAASGFIFYSYDMGWYRQAPGKERELVAANDSRGVNTYYADSVKGRFTISRDNAKNTVYLQMNSLKPEDTAVYYCAAQASSQIDYYGGHYGYWGQGTQVTVSS | low polyreactivity
6 | QVQLVESGGGLVQAGGSLRLSCAASGFIFYVYAMGWYRQAPGKERELVAAISADGGITYYADSVKGRFTISRDNAKNSVYFQMNSLKPEDTAVYYCNTLGDQDAYAGFRLDYWGQGTQVTVSS | low polyreactivity
7 | QVQLVESGGGLVQAGGSLRLSCAASGFIFYYDAMGWYIQAPGKERELVARIYSGRSTYYADSVKGRFTISRDNAKNTVYLQMNSLKPEDTAVYYCNATRLVWFSQGYDYWGQGTQVTVSS | high polyreactivity
8 | QVQLVESGGGLVQAGGSLRLSCAASGFIFYYNAMGWYRQAPGKERELVAAITRSGGSTYYADSVKGRFTISRDNAKNTVYLQMNSLKPEDTAVYYCAARVYPYHWSYYYWGQGTQVTVSS | high polyreactivity
9 | QVQLVESGGGLVQAGGSLRLSCAASGFIFYYNAMGWYRQAPGKERELVARISSGSGTYYADSVKGRFTISRDNAKNTVYLQMNSLKPEDTAVYYCAARYPRGAMYYWGQGTQVTVSS | low polyreactivity
10 | QVQLVESGGGLVQAGGSLRLSCAASGFIFYYYAMGWYRQAPGKERELVAAISRSGGSTYYADSVKGRFTISRDNAKNTVYLQMNSLKPEDTAVYYCAVYGYYALTHWEYDYWGQGTQVTVSS | high polyreactivity
11 | QVQLVESGGGLVQAGGSLRLSCAASGFIFYYYAMGWYRQAPGKERELVAAITSSGGSTYYADSVKGRFTISRDNAKNTVYLQMISLKPEDTAVYYCNALQYSRMDYWGQATQVTVSS | high polyreactivity
12 | QVQLVESGGGLVQAGGSLRLSCAASGFIFYYYAMGWYRQAPGKERELVASISSDGSTYYADSVKGRFTISRDNAKNTVYLQMNSLKPEDTAVYYCNADRYYPDDLSDGVGTYDYWGQGTQVTVSS | low polyreactivity
13 | QVQLVESGGGLVQAGGSLRLSCAASGFIIDCYAMGRYRQAPGKERELVAVISQRGSNTYYADSVKGRFTISRDHAKNTVYLQMNSLKPEDTAVYYCAARYKQGDSTGGRMNYWGQGTQVTVSS | high polyreactivity
14 | QVQLVESGGGLVQAGGSLRLSCAASGFIIDTYPMGCYRQAPGKERELVAAITRSGGSTYYADSVKGRFTISRDNAKNTVYLQMNSLKPEDTAVYYCAARQRYTRYDYWGQGTQVTVSW | high polyreactivity
15 | QVQLVESGGGLVQAGGSLRLSCAASGFIIDYYAKGWYRQAPGKERELVASITDSTTYYADSVKGRFTISRDNAKNTVYLQMNSLKPEDTAVYYCNARGGYAYVLYDYWGQGTQVTVSS | low polyreactivity
16 | QVQLVESGGGLVQAGGSLRLSCAASGFIIFDYAMGWYRQAPGKESELVAAITSGGSTDYADSVKGRFTLSRDNAKNTVYLQMNSLKPEDTAVYYCAAVYGSVSRYDYWGQGTQVTVSA | low polyreactivity
17 | QVQLVESGGGLVQAGGSLRLSCAASGFIIKANAMGWYRQAPGKERELVASITFGGDSTYYADSVKGRFTISRDNAKNTVYLQMNSLKPEDTAVYYCNTRRRSYRTYYYWGQGTQVTVLS | low polyreactivity
18 | QVQLVESGGGLVQAGGSLRLSCAASGFIIKGNVMGWYRQAPGKERELVAAITRRGSTYYADSVKGRFTISRDNAKNTVYLQMNSLKPEDTAVYYCAARPWKAIEKVDGSGGGDYWGQGTQVTVSS | low polyreactivity
19 | QVQLVESGGGLVQAGGSLRLSCAASGFIIKSYAMGWYRQAPGKERELVAAISYTGSITYYADSVKGRFTISRDNAKNTVYLQMNSLKPEDTAVYYCAVGRYADQHDYWGQGTQVTVSS | high polyreactivity
20 | QVQLVESGGGLVQAGGSLRLSCAASGFIIPGYAMGWYRQAPGKERELVAAISSGTSTYYADSVKGRFTISRDNAKNTVYLQMNSLKPEATAVYYCAADTWYRFGYWGQGTQVTVSS | low polyreactivity
21 | QVQLVESGGGLVQAGGSLRLSCAASGFIIPGYAMGWYRQAPGKERELVAAISSGTSTYYEDSVKGRFTISRDNAKNTVYLQMNSLKPEATAVYDCAAETWYRFGYWGQGTQVTVSS | low polyreactivity
22 | QVQLVESGGGLVQAGGSLRLSCAASGFIIPYYAMGWYRQAPGKERELVAAISRSGGSTYYADSVKGRFTISRDNAKNTVYLQMHSLKPEDTAVYYCATRKGGTLYNYWGQGTQVTVSS | high polyreactivity

Row | Sequence | polyreactivity (PSR sort gate)
23 | QVQLVESGGGLVQAGGSLRLSCAASGFIIQGNALGWYRQAPGTERELVAAISSSVSTYYADSVKGRFTISRDNAKNTVYLQMNSLKPEDNAVYDCNAGFPLSLWLGDYWGQGTLVTVSS | low polyreactivity
24 | QVQLVESGGGLVQAGGSLRLSCAASGFIIRGNVMGWSRQAPGKERELVAAISGRGGSTYYADSVKGRFTISRDNAKNTVYLQRNILKPEDTGVYYCNAAGLYNSRLDYWGQGTQVTVSS | high polyreactivity
25 | QVQLVESGGGLVQAGGSLRLSCAASGFIITYYAMGWYRQATGKDRELVAVISWSGGTTYYAESVKGRFTISRDNATNTVYLQMNSLKPEDTAVYYCAAYRYFRPGDYWGQGTQVTVSS | low polyreactivity
26 | QVQLVESGGGLVQAGGSLRLSCAASGFIIYFNAMGWYRQPRGKERELVASITSGASTNYADSVKGRFTISRDNAKNTVYLQMNSLKPEDTAVYYCAAAYFWLDPYVEYDYWGQGTQVTVSS | low polyreactivity
27 | QVQLVESGGGLVQAGGSLRLSCAASGFILDTYGMGWYRQAPGKERELVAAISQSDVSTYYADSVKGRFTISRDNAKNTVYLQMNSLKPEDTAVYYCNAGAGKRGYDYWGQGTQVTVSS | low polyreactivity
28 | QVQLVESGGGLVQAGGSLRLSCAASGFILDWYAMGWYRQAPGKERELVAAISYSGGSTYYADSVKGRFTISRDNAKNTVYLQMNSLKPEDTAVYYCNADIWYGDMDYWGQGTQVTVSS | high polyreactivity
29 | QVQLVESGGGLVQAGGSLRLSCAASGFILDYNAMGWYRQAPGKERELVAAITNGGITYYADSVKGRFTISRDNAQNTVYLQMNSLKPEDTAVYYCAADNDTDHSSATYGYDYWGQGTQVTVSS | low polyreactivity
30 | QVQLVESGGGLVQAGGSLRLSCAASGFILDYNTMGWYRQAPGNERELVAAISSSGDTTYYADSVKGRFTISRDNAKNTVYLQMNSLKPEDTAVYYCAREYGDGYEYWGQGTQVTVSS | low polyreactivity
31 | QVQLVESGGGLVQAGGSLRLSCAASGFILDYYAMGWYRQAPGKERELVATITGRGDRTYYADSVKGRFTISRDNAMNTVYLQMNSLKPEDTAVSYCAAGFDGSRHPGFDSWGQGTQVTVSS | low polyreactivity
32 | QVQLVESGGGLVQAGGSLRLSCAASGFILEDYTMGWYRQAPGKERELVAAISSGGTRTYYADSVKGRFTISRDNAKNTVYLQMNSLKPEDTAVYYCTTRRGERGYWGQGTQVTVSS | high polyreactivity
33 | QVQLVESGGGLVQAGGSLRLSCAASGFILFFNAMGWYRAPWKERELVAGITQSGGSTYYADSVKGRFTISRDNAKNPVYLQMNSLKPEDTAVYYCAAELYDRWSRMDYWGQGTQVTVSS | low polyreactivity
34 | QVQLVESGGGLVQAGGSLRLSCAASGFILGRYAMGWYRQAPGKERELVAAISIGGRTNYADSVKGRFTISRDNAKNTVYLQMNSLKPEDTEVYYCAVDRYVTYSLSNSLYEYWGQGTQVTVSS | low polyreactivity
35 | QVQLVESGGGLVQAGGSLRLSCAASGFILGTYAMGWYRQATGKERELVADISWSVGSTYYADSVKGRFTISRDNAKNTVYLQMISLKPEDTAVYYCNADGYTLWYEYDYWGQGTQVTVSS | low polyreactivity
36 | QVQLVESGGGLVQAGGSLRLSCAASGFILGVYAMGWYRQAPGKERELVAAITFSGASTYYADSVKGRFTISRDNAKNTVYLQMNSLKPEDTAVYYCNKTSAYYRYEYWGQGTQVTVSS | low polyreactivity
37 | QVQLVESGGGLVQAGGSLRLSCAASGFILNFYAMGWYRQAPGKERELVAAISTSGGSTYYADSVKGRFTISRDNAKNTVYLQMNSLKPEDTAGYYCAARRARTYHTSSGYRGYYYWGQGTQVTVSS | high polyreactivity
38 | QVQLVESGGGLVQAGGSLRLSCAASGFILWYYTMGWYRQAPGKERELVAVIDWSGDSTYADSVKGRFTISRDNAKNTVYLQMNSLKPEDTAVYYCNKGYPSPQDTYYVPMDYWGQGTQVTVSS | low polyreactivity
39 | QVQLVESGGGLVQAGGSLRLSCAASGFILYSYAMGWYRQAPGKERELVAGISIGGITNYADSVKGRFTISRDNAKNTVYLQMNSLKPEDTAVYYCATDGTTYIWDGDYWGQGTQVTVSS | low polyreactivity
40 | QVQLVESGGGLVQAGGSLRLSCAASGFILYYYAMGWYRQAPGKERELVASISRRGGSTYYADSVKGRFTISRDNAKNTVYLQMNSLKPEDTAVYYCAATETTSRRFGYDYWGQGTQVTVSS | high polyreactivity
41 | QVQLVESGGGLVQAGGSLRLSCAASGFIMDNYAMGCYRQAHGKERELVAAISGSGGSTYYADSVKGRFTISRDNAKNTVYLQMNSLKPEDTAVYYCNRDRLLRQYDYWGQGTQVTVSS | high polyreactivity
42 | QVQLVESGGGLVQAGGSLRLSCAASGFIMDYNTMGGYRQAPGKERELVAAISSSGDTTYYAASVKGRFTISRDNAKNSVYLQMNCLKPDDTAVYYCAREYGDGYEYWGQGTQVTVSS | low polyreactivity
43 | QVQLVESGGGLVQAGGSLRLSCAASGFISAGYAMGWYRQAPGKERELVAAISRRGGRTYYADSVKGRFTISRDNAKNTVYLQLNSLKPEDTAVYYCAAGSPHSAFAGPYDYWGQGTQVTVSS | high polyreactivity
